The target of assay [1] is T1, human glycophorin A on human red blood cells or red blood cell membranes (human, UniProt P02724 20-150).
T1 construct: whole, on cells; also called hRBC; human RBC membranes
T1 sequence (looked up): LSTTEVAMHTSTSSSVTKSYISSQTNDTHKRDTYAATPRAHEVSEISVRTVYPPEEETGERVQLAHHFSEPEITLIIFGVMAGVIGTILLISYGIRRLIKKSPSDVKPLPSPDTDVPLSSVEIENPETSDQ
Description: Fab on intact human RBC, unbound Fab by ELISA; 120 min after 200-fold dilution. (In general: An ELISA detects its analyte on a solid surface through an enzyme-linked reagent.)

The target in assay [2] is T1, human glycophorin A on human red blood …. Description: Fab on intact human RBC, unbound Fab by ELISA; 5 min after 200-fold dilution.
Assay [3] deals with T2, Cynomolgus monkey glycophorin A on Cynomolgus monkey red blood cells or red blood cell membranes (Cynomolgus monkey).
T2 construct: whole, on cells; also called Cyno RBC; Cynomolgus monkey RBC membranes
Kind of assay: Fab on intact cyno RBC, unbound Fab by ELISA; 5 min after 200-fold dilution.

Assay [4] addresses T1, human glycophorin A on human red blood …. Kind of assay: SPR (Biacore), Fab on human RBC membranes.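 Further: human RBC membranes captured on an L1 sensor chip, Fab fragments passed over as analyte, binding kinetics read by surface plasmon resonance.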
Description: (§1) Kinetic analysis of the antibody binding to human red blood cell membranes was also performed using surface plasmon resonance (SPR) using a Biacore instrument. In this assay membranes prepared from human red blood cells were attached to a L1 sensor matrix and antibodies were flowed over the RBC membranes.
(§2) The binding kinetics of the affinity matured Fab antibodies was also measured.
For assay [5] the target is unchanged. Kind of assay: SPR (Biacore), Fab on human RBC membranes;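 further: human RBC membranes captured on an L1 sensor chip, Fab fragments passed over as analyte, binding kinetics read by surface plasmon resonance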; T½ = 0.69/kd. In general terms: SPR reads the build-up and loss of mass on a sensor chip optically.
Description: as §1, §2
Assay [6] shares this target. Description: Fab on intact human RBC, unbound Fab by ELISA; 0 min after 200-fold dilution.
Description: (§3) The binding of affinity matured Fab antibodies to intact human RBC was also measured. Human RBC were isolated from fresh anti-coagulated normal human blood by centrifugation through a ficol gradient and washing in PBS buffer. RBC diluted to 1/10th of normal hematocrit were incubated with purified Fab antibodies at a final concentration of 7 ug/ml for 1 hour at room temperature on a rotating shaker after which a sample was taken and the RBC were pelleted by centrifugation and the supernatant was collected. The remaining RBC suspension was diluted 200-fold in PBS buffer and incubated for a total of 2 hours at room temperature on a rotating shaker and samples were removed at 0, 5 min, 20 min, 1 h and 2 h and the RBC pelleted and the supernatant collected. The amount of Fab in the supernatants was then measured using an ELISA assay and the results used to calculate the percentage of the input Fab that was bound to the RBC. […] The percentage that remains bound after 200-fold dilution of the RBC suspension is an indication of the overall strength of the binding to human RBC.
For assay [7], the target named is T2, Cynomolgus monkey glycophorin A on …. Kind of assay: Fab on intact cyno RBC, unbound Fab by ELISA; 60 min after 200-fold dilution.
Description: (§4) The binding of affinity matured Fab antibodies to intact Cynomolgus monkey RBC was measured. Cynomolgus monkey RBC were isolated from fresh anti-coagulated blood by centrifugation through a ficol gradient and washing in PBS buffer. RBC diluted to 1/10th of normal hematocrit were incubated with the Fab at a final concentration of 7 ug/ml for 1 hour at room temperature on a rotating shaker after which a sample was taken and the RBC were pelleted by centrifugation and the supernatant was collected. The remaining RBC suspension was diluted 200-fold in PBS buffer and incubated for a total of 2 hours at room temperature on a rotating shaker and samples were removed at 0, 5 min, 20 min, 1 h and 2 h and the RBC pelleted and the supernatant collected. […] The amount of Fab in the supernatants was then measured using an ELISA assay and the results used to calculate the percentage of the input Fab that was bound to the RBC.
For assay [8] the target is unchanged. Kind of assay: Fab on intact cyno RBC, unbound Fab by ELISA; 20 min after 200-fold dilution.
For assay [9], the target named is T1, human glycophorin A on human red blood …. Kind of assay: SPR (Biacore), Fab on human RBC membranes; * not accurate, instrument limit.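 Further: human RBC membranes captured on an L1 sensor chip, Fab fragments passed over as analyte, binding kinetics read by surface plasmon resonance.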
Description: as §1, §2
The target in assay [10] is T2, Cynomolgus monkey glycophorin A on …. Kind of assay: Fab on intact cyno RBC, unbound Fab by ELISA; 120 min after 200-fold dilution.
The target is the same in assay [11]. Description: Fab 7 ug/ml on intact cyno RBC, unbound Fab by ELISA; pre-dilution.
Description: as §4
Assay [12] concerns the target T1, human glycophorin A on human red blood …. Kind of assay: Fab 7 ug/ml on intact human RBC, unbound Fab by ELISA; pre-dilution.
Description: as §3
The target is the same in assay [13]. Kind of assay: Fab on intact human RBC, unbound Fab by ELISA; 60 min after 200-fold dilution.
Description: as §3
Assay [14] addresses T2, Cynomolgus monkey glycophorin A on …. Description: Fab on intact cyno RBC, unbound Fab by ELISA; 0 min after 200-fold dilution.
Description: as §4
Assay [15] has as its target T1, human glycophorin A on human red blood …. Description: Fab on intact human RBC, unbound Fab by ELISA; 20 min after 200-fold dilution.
Description: as §3
The target is the same in assay [16]. Kind of assay: scFv on intact human RBC, unbound scFv by ELISA; 0 min after 200-fold dilution.
Description: (§5) RBC diluted to 1/10th of normal hematocrit were incubated with the set of “Top 10” purified scFv antibodies at a final concentration of 7 ug/ml for 1 hour at room temperature on a rotating shaker after which a sample was taken and the RBC were pelleted by centrifugation and the supernatant was collected. The remaining RBC suspension was diluted 200-fold in PBS buffer and incubated for a total of 2 hours at room temperature on a rotating shaker and samples were removed at 0, 5 min, 20 min, 1 h and 2 h and the RBC pelleted and the supernatant collected. […] The percentage that remains bound after dilution is an indication of the overall strength of the binding to human RBC.
Assay [17] shares this target. Description: scFv on intact human RBC, unbound scFv by ELISA; 20 min after 200-fold dilution.
Description: as §5
Assay [18] shares this target. Description: scFv on intact human RBC, unbound scFv by ELISA; 5 min after 200-fold dilution.
Description: as §5
The target is the same in assay [19]. Description: scFv 7 ug/ml on intact human RBC, unbound scFv by ELISA; pre-dilution.
Description: as §5
Assay [20] shares this target. Kind of assay: scFv on intact human RBC, unbound scFv by ELISA; 60 min after 200-fold dilution.
Description: as §5
Assay [21] has the same target. Description: scFv on intact human RBC, unbound scFv by ELISA; 120 min after 200-fold dilution.
Description: as §5

Where a chain is given by its changes, count along the chain named.

B1: TPP-7778, affinity matured 6C12 Fab (Fab, V domains shown)
VH: EVQLVQSGAEVKKPGASVKVSCKASGYTFTTYAIHWVRQAPGQGLEWMGYINPSSGYTRYNPKFKHRVTMTRDKSTSTAYMELRSLRSDDTAVYYCQTGTRDYWGQGTTVTVSS
VL: DIQLTQSPSFLSASVGDRVTITCRASSSVRYIYWFQQKPGKAPKLLIYATSTLQSGVPSRFSGSGSGTEYTLTISSLQPEDFATYYCHQRNSFPYTFGQGTKLEIK
notes: Tested as Fab
One may read the Kd as a measure of binding affinity in units of concentration. By koff is commonly meant a measure of how fast the partners let go of each other. One may read the kon as a measure of how fast the partners come together. Turning to B1, the “percentage of input antibody bound” value in assay [1] is 64%; in assay [2] it was 76%; in assay [3], 54%; in assay [6], 84%; in [7] it was 36%; in assay [8], 48%. For the same molecule, the “percentage of input antibody bound” value in assay [10] is 27%; in assay [11], 81%; in [12] it was 95%; in assay [13], 66%; in assay [14], 56%; in assay [15] it was 66%. In assay [4], this molecule gave a Kd of 0.011 nM. This molecule gave a koff in assay [4] of 0.0011 s⁻¹. Further, in assay [5], the “Estimated T½” value was 10 min. Also, the kon in [9] is 1e+08 M⁻¹ s⁻¹.

B2: TPP-7793, affinity matured 6C12 Fab (Fab, V domains shown)
VH: B1 VH with T31R, A33T, H66G, Q97W
VL: B1 VL with R30S
notes: Tested as Fab
With B2, the “percentage of input antibody bound” value in assay [1] worked out at 86%; in assay [2], 92%; in [3] it was 58%; in assay [6], 96%; in assay [7], 51%; in [8], 51%. In addition, the “percentage of input antibody bound” value in assay [10] is 46%; in [11], 72%; in [12], 98%; in assay [13], 85%; in assay [14], 58%; in assay [15], 86%. For the same molecule, in [4], binding was characterised by a dissociation constant (Kd) of 0.0246 nM. In addition, the koff in [4] was 0.000504 s⁻¹. Further, the “Estimated T½” value in assay [5] was 23 min. Moreover, in assay [9], the kon was found to be 2.05e+07 M⁻¹ s⁻¹.

B3: TPP-7782, affinity matured 6C12 Fab (Fab, V domains shown)
VH: B1 VH with A33T, H66G
VL: B1 VL with T52F, L53R
notes: Tested as Fab
B3: the “percentage of input antibody bound” value in [1] came out at 77%; in [2], 83%; in assay [3] it was 68%; in assay [6], 95%; in [7], 57%; in assay [8], 59%. In addition, the “percentage of input antibody bound” value in assay [10] worked out at 52%; in assay [11] it was 94%; in assay [12], 99%; in assay [13] it was 79%; in assay [14], 88%; in [15], 76%. Also, binding in [4] was characterised by a dissociation constant (Kd) of 0.0295 nM. The molecule also returned a koff in assay [4] of 0.000413 s⁻¹. For the same molecule, the “Estimated T½” value in assay [5] was 28 min. Besides, the kon in assay [9] is 1.4e+07 M⁻¹ s⁻¹.

B4: TPP-7781, affinity matured 6C12 Fab (Fab, V domains shown)
VH: B1 VH with A33T, S54K, Y57W, H66G
VL: B1 VL
notes: Tested as Fab
As to B4, the “percentage of input antibody bound” value in assay [1] was 59%; in assay [2], 69%; in assay [3] it was 34%; in [6], 93%; in assay [7] it was 24%; in assay [8] it was 32%. Moreover, the “percentage of input antibody bound” value in [10] was found to be 19%; in assay [11] it was 86%; in assay [12], 97%; in assay [13], 64%; in [14], 40%; in assay [15], 61%. The molecule further showed a Kd in [4] of 0.0289 nM. Further, the koff in assay [4] amounted to 0.000547 s⁻¹. Further, the “Estimated T½” value in assay [5] is 21 min. In assay [9], this molecule returned an on-rate (kon) of 1.89e+07 M⁻¹ s⁻¹.

B5: TPP-7796, affinity matured 6C12 Fab (Fab, V domains shown)
VH: B1 VH with A33T, S54K, Y57W, H66G
VL: B1 VL with R30S
notes: Tested as Fab
Take B5: the “percentage of input antibody bound” value in [1] stood at 13%; in [2] it was 48%; in assay [3] it was 43%; in [6], 82%; in assay [7] it was 7%; in assay [8] it was 21%. Further, the “percentage of input antibody bound” value in [10] was found to be 0%; in [11], 68%; in [12], 96%; in assay [13], 15%; in assay [14], 56%; in assay [15], 12%. In assay [4], this molecule registered a Kd of 0.111 nM. Moreover, the koff in assay [4] is 0.00238 s⁻¹. In [5], the “Estimated T½” value is 5 min. In assay [9], this molecule returned a kon of 2.15e+07 M⁻¹ s⁻¹.

B6: TPP-7792 scFv with C-terminal 6xHIS tag (scFv)
scFv: DIQLTQSPSFLSASVGDRVTITCRASSSVRYIYWFQQKPGKAPKLLIYATSFRQSGVPSRFSGSGSGTEYTLTISSLQPEDFATYYCHQRNSFPYTFGQGTKLEIKGGGGSGGGGSGGGGSGGGGSEVQLVQSGAEVKKPGASVKVSCKASGYTFTTYAIHWVRQAPGQGLEWMGYINPSSGYTRYNPKFKGRVTMTRDKSTSTAYMELRSLRSDDTAVYYCWTGTRDYWGQGTTVTVSSHHHHHH
As to B6, the “percentage of input scFv antibody bound” value was found to be 100% in assay [16]; 98% in assay [17]; 99% in assay [18]; 100% in [19]; 95% in assay [20]; 92% in assay [21].

B7: TPP-7781 scFv with C-terminal 6xHIS tag (scFv)
scFv: B6 scFv with F52T, R53L, A159T, S180K, Y183W, W223Q
For the molecule B7, the “percentage of input scFv antibody bound” value amounted to 97% in [16]; 93% in assay [17]; 94% in assay [18]; 97% in assay [19]; 93% in assay [20]; 92% in [21].

B8: TPP-7778 scFv with C-terminal 6xHIS tag (scFv)
scFv: B6 scFv with F52T, R53L, G192H, W223Q
As to B8, the “percentage of input scFv antibody bound” value is 97% in assay [16]; 81% in [17]; 88% in assay [18]; 98% in assay [19]; 79% in assay [20]; 76% in assay [21].

Values taken from US20190359687A1 (Bayer, published 2019).
